Measurements taken from article PMC11091212, “Microfibril-associated glycoprotein 4 forms octamers that mediate interactions with elastogenic proteins and cells” (Nature Communications, 2024).

B2: Microfibril-associated glycoprotein 4 (natural protein, human, UniProt P55083 22-255, looked up)
chain: VSGIRGDALERFCLQQPLDCDDIYAQGYQSDGVYLIYPSGPSVPVPVFCDMTTEGGKWTVFQKRFNGSVSFFRGWNDYKLGFGRADGEYWLGLQNMHLLTLKQKYELRVDLEDFENNTAYAKYADFSISPNAVSAEEDGYTLFVAGFEDGGAGDSLSYHSGQKFSTFDRDQDLFVQNCAALSSGAFWFRSCHFANLNGFYLGGSHLSYANGINWAQWKGFYYSLKRTEMKIRRA
modifications: intermolecular disulphide bond between C34 of two monomers; N-glycosylated at N87 and N137 (cryo-EM density)
notes: signal peptide in the construct; Q21 is the first residue after signal peptide cleavage; Octamer (8 copies) in TBS with 2 mM Ca2+; tetramer (4 copies) after Ca2+ depletion with EDTA or EGTA; also called MFAP4; source: HEK293 EBNA cells, transfected (pCEP4-MFAP4), conditioned medium, purified by nickel chelating chromatography

Columns and labels:
[1] = biological target: B2; test: SPR; Ca2+ form (octamer): MFAP4 or MFAP4_(C34S) amine-coupled on CM5 (Biacore X), elastogenic proteins as analytes 5-100 µg/mL in TBS/Ca2+ (2 mM CaCl2); 1:1 Langmuir fit, KD is the average over five concentrations; conditions: both partners purified
[2] = biological target: T1, recombinant human tropoelastin (human, UniProt P15502 27-786); test: as above; conditions: both partners purified
T1 construct: human tropoelastin, recombinant; source: bought: Elastagen
T1 sequence (looked up): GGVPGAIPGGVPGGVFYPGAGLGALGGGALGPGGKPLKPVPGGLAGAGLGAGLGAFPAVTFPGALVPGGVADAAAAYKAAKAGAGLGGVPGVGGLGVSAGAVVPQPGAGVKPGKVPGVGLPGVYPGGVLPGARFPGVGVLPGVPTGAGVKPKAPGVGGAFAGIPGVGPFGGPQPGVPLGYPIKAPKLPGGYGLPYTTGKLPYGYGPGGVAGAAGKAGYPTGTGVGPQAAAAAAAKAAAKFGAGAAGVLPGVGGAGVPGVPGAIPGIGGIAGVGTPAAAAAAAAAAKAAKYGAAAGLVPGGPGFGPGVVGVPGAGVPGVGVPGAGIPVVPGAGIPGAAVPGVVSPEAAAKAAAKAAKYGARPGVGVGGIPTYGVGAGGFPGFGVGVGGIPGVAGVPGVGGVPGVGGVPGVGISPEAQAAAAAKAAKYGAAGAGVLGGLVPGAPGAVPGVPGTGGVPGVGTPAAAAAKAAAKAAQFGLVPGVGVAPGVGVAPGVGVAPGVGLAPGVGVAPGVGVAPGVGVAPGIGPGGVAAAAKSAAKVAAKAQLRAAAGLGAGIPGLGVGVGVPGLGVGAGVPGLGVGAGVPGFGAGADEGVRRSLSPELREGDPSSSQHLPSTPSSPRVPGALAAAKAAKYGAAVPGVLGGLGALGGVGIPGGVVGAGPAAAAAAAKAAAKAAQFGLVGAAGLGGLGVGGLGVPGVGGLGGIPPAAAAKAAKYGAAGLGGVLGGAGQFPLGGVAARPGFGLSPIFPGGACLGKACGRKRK

fibulin-4 = biological target: T2, fibulin-4 (UniProt O95967 24-443); test: as above; conditions: both partners purified
T2 construct: fibulin-4, recombinant
T2 sequence (looked up): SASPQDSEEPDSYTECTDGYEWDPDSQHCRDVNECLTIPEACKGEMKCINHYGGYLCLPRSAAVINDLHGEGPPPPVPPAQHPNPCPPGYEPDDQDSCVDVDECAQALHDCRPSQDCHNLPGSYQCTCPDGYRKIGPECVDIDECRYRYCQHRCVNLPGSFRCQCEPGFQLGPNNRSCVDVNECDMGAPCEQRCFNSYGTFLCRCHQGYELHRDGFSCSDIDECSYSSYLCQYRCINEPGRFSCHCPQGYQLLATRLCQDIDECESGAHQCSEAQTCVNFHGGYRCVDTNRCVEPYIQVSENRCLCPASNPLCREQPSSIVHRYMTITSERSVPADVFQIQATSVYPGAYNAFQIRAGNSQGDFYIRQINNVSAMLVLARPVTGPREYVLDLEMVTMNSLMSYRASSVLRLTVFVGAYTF

fibulin-5 = biological target: T3, fibulin-5 (UniProt Q9UBX5 24-448); test: as above; conditions: both partners purified
T3 construct: fibulin-5, recombinant
T3 sequence (looked up): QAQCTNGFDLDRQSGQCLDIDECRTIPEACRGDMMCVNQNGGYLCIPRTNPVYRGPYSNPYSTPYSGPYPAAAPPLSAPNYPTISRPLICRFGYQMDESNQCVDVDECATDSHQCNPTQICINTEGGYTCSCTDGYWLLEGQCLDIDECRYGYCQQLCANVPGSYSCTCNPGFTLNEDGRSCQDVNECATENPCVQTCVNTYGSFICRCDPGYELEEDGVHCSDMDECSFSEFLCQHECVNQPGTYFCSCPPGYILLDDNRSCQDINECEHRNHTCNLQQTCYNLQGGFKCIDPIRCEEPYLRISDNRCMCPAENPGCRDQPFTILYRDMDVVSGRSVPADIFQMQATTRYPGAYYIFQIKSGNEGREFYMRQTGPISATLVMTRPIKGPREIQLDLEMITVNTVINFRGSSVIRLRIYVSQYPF

[3] = biological target: T4, latent transforming growth factor beta binding protein-4, long isoform (UniProt Q8N2S1-1 28-1624); test: as above; conditions: both partners purified
T4 construct: LTBP4, long isoform (LTBP4L); also called LTBP4L

[4] = biological target: the molecule itself; test: SPR; self-interaction of octamers; Biacore X, CM5 chip, MFAP4 or MFAP4_(C34S) amine-coupled (300-500 RU), same protein as analyte 5-100 µg/mL in TBS/Ca2+ (50 mM Tris-HCl pH 7.4, 150 mM NaCl, 2 mM CaCl2); 1:1 Langmuir fit, KD is the average over five concentrations
[5] = biological target: the molecule itself; test: dynamic light scattering; TBS/Ca2+ (2 mM); mass from hydrodynamic radius by calibration with standard proteins, globular model; monomers to octamer
[6] = biological target: the molecule itself; test: SDS-PAGE; non-reducing, 10% gel, Coomassie stain; disulphide-linked dimer
[7] = biological target: the molecule itself; test: cryo-EM structure; MFAP4 after Ca2+ depletion with 5 mM EDTA; single particle analysis, C2 symmetry; tetramer
[8] = biological target: the molecule itself; test: atomic force microscopy; MFAP4 or MFAP4_(C34S) Ca2+-depleted (5 mM EDTA); particle heights on mica, tapping mode in air

T4 sequence (Q8N2S1 28-1624): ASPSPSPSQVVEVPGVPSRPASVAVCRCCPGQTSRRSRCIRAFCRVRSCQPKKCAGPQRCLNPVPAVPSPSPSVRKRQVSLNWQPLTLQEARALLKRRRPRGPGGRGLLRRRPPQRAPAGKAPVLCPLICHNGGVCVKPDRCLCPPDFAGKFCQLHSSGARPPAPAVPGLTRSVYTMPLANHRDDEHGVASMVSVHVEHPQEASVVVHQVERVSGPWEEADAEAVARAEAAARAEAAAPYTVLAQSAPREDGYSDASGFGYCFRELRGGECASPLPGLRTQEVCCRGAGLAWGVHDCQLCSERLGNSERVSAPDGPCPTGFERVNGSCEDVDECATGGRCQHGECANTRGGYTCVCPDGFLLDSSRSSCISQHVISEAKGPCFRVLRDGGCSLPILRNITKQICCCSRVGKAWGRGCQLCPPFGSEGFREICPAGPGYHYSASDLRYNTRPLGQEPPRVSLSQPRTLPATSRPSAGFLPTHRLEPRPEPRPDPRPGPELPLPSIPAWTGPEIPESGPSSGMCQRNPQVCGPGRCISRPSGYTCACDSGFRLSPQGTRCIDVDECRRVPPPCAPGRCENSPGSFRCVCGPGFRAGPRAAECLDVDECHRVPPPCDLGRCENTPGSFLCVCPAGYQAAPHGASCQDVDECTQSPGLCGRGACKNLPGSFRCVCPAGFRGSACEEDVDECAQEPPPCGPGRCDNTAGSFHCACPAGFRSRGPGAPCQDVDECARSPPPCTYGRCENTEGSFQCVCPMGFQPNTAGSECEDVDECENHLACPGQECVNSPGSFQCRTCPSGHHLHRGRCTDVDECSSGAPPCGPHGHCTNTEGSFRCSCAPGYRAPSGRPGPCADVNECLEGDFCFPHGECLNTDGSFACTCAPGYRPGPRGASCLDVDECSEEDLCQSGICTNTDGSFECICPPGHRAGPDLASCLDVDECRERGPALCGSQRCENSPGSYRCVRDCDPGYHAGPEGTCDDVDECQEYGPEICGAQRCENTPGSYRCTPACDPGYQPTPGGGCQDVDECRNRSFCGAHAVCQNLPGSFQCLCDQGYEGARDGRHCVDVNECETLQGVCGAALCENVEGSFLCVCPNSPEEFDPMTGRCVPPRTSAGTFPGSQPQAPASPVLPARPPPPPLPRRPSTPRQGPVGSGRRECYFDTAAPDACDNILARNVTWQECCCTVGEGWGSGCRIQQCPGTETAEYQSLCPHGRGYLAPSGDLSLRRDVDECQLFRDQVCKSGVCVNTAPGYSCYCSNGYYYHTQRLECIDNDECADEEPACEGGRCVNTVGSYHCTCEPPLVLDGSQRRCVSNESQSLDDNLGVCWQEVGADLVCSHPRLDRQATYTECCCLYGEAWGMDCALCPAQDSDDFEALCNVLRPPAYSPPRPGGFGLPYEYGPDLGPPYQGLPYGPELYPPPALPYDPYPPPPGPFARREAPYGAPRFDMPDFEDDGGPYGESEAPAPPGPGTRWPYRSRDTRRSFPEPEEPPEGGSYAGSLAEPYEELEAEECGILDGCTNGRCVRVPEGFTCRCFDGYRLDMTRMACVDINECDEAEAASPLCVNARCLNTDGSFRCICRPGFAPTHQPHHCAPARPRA

B1: fibrillin-1 centre region fragment rF1M (domain or fragment)
chain: not shown
[1]
  Kd: 1.2 nM

## B2
[2]
  Kd: 45 nM
fibulin-4
  Kd: 110 nM
fibulin-5
  Kd: 357 nM
[3]
  Kd: 18 nM
[4]
  Kd: 6.2 nM
[5]
  stoichiometry N: 8
[6]
  stoichiometry N: 2
[7]
  stoichiometry N: 4

B3: MFAP4_(C34S) (natural protein, human, UniProt P55083 22-255, looked up)
chain: VSGIRGDALERFSLQQPLDCDDIYAQGYQSDGVYLIYPSGPSVPVPVFCDMTTEGGKWTVFQKRFNGSVSFFRGWNDYKLGFGRADGEYWLGLQNMHLLTLKQKYELRVDLEDFENNTAYAKYADFSISPNAVSAEEDGYTLFVAGFEDGGAGDSLSYHSGQKFSTFDRDQDLFVQNCAALSSGAFWFRSCHFANLNGFYLGGSHLSYANGINWAQWKGFYYSLKRTEMKIRRA
notes: signal peptide in the construct; human MFAP4, M1KAL...IRRA255 with C34S; Q21 is the first residue after signal peptide cleavage; Octamer in TBS with Ca2+; tetramer after Ca2+ depletion; No intermolecular disulphide bond; also called MFAP_(C34S); source: HEK293 EBNA cells, transfected (pCEP4-MFAP4_(C34S)), conditioned medium, purified by nickel chelating chromatography
[4]
  Kd: 5.8 nM
[8]
  stoichiometry N: 4
[5]
  stoichiometry N: 8
